Data taken from the supplement of paper PMC9112550, “Optimization of the antimicrobial peptide Bac7 by deep mutational scanning” (BMC Biology, 2022).

tested on: Escherichia coli TOP10; experiment: shrunken log2 fold change of peptide-encoding DNA abundance (4.5 h post-induction vs induction); higher = less antimicrobial activity (less host growth inhibition); conditions: time post-induction: 4.5 h; library: site-saturation at positions 5, 18, 19, 20
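Also: peptides expressed intracellularly from a pBAD plasmid library in pooled LB shake-flask culture, induced with 0.3% L-arabinose, DNA abundance read by NGS, three biological replicates, DESeq2 with apeglm shrinkage.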

| Sequence | shrunken log2 fold change |
| --- | --- |
| RRIRHRPPRLPRPRPRPRFCPRP | 0.0432 |
| RRIRQRPPRLPRPRPRPKANPRP | 0.0666 |
| RRIRDRPPRLPRPRPRPLHVPRP | -0.133 |
| RRIRLRPPRLPRPRPRPSLNPRP | -0.625 |
| RRIRDRPPRLPRPRPRPKEAPRP | -0.0217 |
| RRIRHRPPRLPRPRPRPHVHPRP | -0.201 |
| RRIRARPPRLPRPRPRPQHMPRP | -0.414 |
| RRIRGRPPRLPRPRPRPIMVPRP | -0.0212 |
| RRIRLRPPRLPRPRPRPIPDPRP | 0.00718 |
| RRIRWRPPRLPRPRPRPSHYPRP | -0.557 |
| RRIRLRPPRLPRPRPRPTIVPRP | -0.183 |
| RRIRARPPRLPRPRPRPCVKPRP | 0.069 |
| RRIRDRPPRLPRPRPRPCYGPRP | -0.0515 |
| RRIRMRPPRLPRPRPRPFIAPRP | -0.251 |
| RRIRKRPPRLPRPRPRPPSNPRP | 0.714 |
| RRIRTRPPRLPRPRPRPQIRPRP | -0.312 |
| RRIRGRPPRLPRPRPRPYQVPRP | 0.174 |
| RRIRARPPRLPRPRPRPWREPRP | -0.0619 |
| RRIRLRPPRLPRPRPRPAVDPRP | 0.163 |
| RRIRERPPRLPRPRPRPKNAPRP | -0.352 |
| RRIRLRPPRLPRPRPRPWSGPRP | -0.000803 |
| RRIRCRPPRLPRPRPRPMFCPRP | -0.237 |
| RRIRWRPPRLPRPRPRPKWFPRP | 0.257 |
| RRIRWRPPRLPRPRPRPAWMPRP | 0.139 |
| RRIRGRPPRLPRPRPRPNDFPRP | -0.000929 |

| Sequence | shrunken log2 fold change |
| --- | --- |
| RRIRHRPPRLPRPRPRPTLMPRP | -0.0715 |
| RRIRFRPPRLPRPRPRPCHHPRP | -0.0196 |
| RRIRDRPPRLPRPRPRPAFDPRP | 0.284 |
| RRIRFRPPRLPRPRPRPNQGPRP | -0.197 |
| RRIRGRPPRLPRPRPRPRFQPRP | 0.158 |
| RRIRTRPPRLPRPRPRPHGGPRP | 0.384 |
| RRIRARPPRLPRPRPRPCDEPRP | 0.085 |
| RRIRLRPPRLPRPRPRPCRCPRP | 0.00318 |
| RRIRYRPPRLPRPRPRPYQHPRP | -1.87 |
| RRIRGRPPRLPRPRPRPMLMPRP | 1.09 |
| RRIRDRPPRLPRPRPRPKNNPRP | -0.556 |
| RRIRPRPPRLPRPRPRPMESPRP | 0.0152 |
| RRIRIRPPRLPRPRPRPHATPRP | -0.0163 |
| RRIRARPPRLPRPRPRPPMFPRP | 0.283 |
| RRIRARPPRLPRPRPRPLNCPRP | -0.08 |
| RRIRRRPPRLPRPRPRPGWIPRP | 0.442 |
| RRIRTRPPRLPRPRPRPDSIPRP | -0.0295 |
| RRIRKRPPRLPRPRPRPYMEPRP | -0.0534 |
| RRIRPRPPRLPRPRPRPACWPRP | 0.671 |
| RRIRSRPPRLPRPRPRPCGAPRP | 0.327 |
| RRIRVRPPRLPRPRPRPSKFPRP | -0.579 |
| RRIRHRPPRLPRPRPRPEFKPRP | 0.0348 |
| RRIRWRPPRLPRPRPRPTWSPRP | 0.541 |
| RRIRERPPRLPRPRPRPWANPRP | -0.0497 |
| RRIRERPPRLPRPRPRPNFYPRP | -0.261 |

| Sequence | shrunken log2 fold change |
| --- | --- |
| RRIRPRPPRLPRPRPRPLWCPRP | -0.158 |
| RRIRKRPPRLPRPRPRPVFKPRP | 0.288 |
| RRIRMRPPRLPRPRPRPNQLPRP | 0.0894 |
| RRIRLRPPRLPRPRPRPECTPRP | 0.114 |
| RRIRKRPPRLPRPRPRPANDPRP | 0.0931 |
| RRIRIRPPRLPRPRPRPTKVPRP | -0.257 |
| RRIRSRPPRLPRPRPRPFYGPRP | -0.507 |
| RRIRMRPPRLPRPRPRPMSKPRP | 0.0165 |
| RRIRHRPPRLPRPRPRPATKPRP | -0.0317 |
| RRIRYRPPRLPRPRPRPYANPRP | -0.474 |
| RRIRVRPPRLPRPRPRPLYMPRP | -0.128 |
| RRIRERPPRLPRPRPRPGKHPRP | -0.324 |
| RRIRYRPPRLPRPRPRPFTSPRP | -0.0993 |
| RRIRTRPPRLPRPRPRPSQMPRP | -0.607 |
| RRIRKRPPRLPRPRPRPVEPPRP | 0.505 |
| RRIRKRPPRLPRPRPRPMKDPRP | 0.618 |
| RRIRVRPPRLPRPRPRPRHFPRP | 0.13 |
| RRIRRRPPRLPRPRPRPGTEPRP | 0.443 |
| RRIRKRPPRLPRPRPRPEYLPRP | -0.0659 |
| RRIRHRPPRLPRPRPRPTEPPRP | 0.0484 |
| RRIRERPPRLPRPRPRPRDSPRP | 0.0154 |
| RRIRGRPPRLPRPRPRPQMWPRP | 0.891 |
| RRIRDRPPRLPRPRPRPHHMPRP | -0.128 |
| RRIRLRPPRLPRPRPRPHSWPRP | 0.0861 |
| RRIRDRPPRLPRPRPRPFEWPRP | 0.109 |
